Drawing on the supplement of paper PMC10567573, this text covers protein stability index for 94 variants.

The labels stand for the following.
B1: FANCE (parent)
chain: AQVLMLGQILELPWKEETFLVLQS
B2: INTS3 (parent)
chain: KKREFRFHPIKETVVEEPVDITPY
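Note: lentivirally expressed fusions sorted by FACS into six bins by GFP to DsRed ratio, PSI derived from sequencing read proportions per bin multiplied by bin number.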

The variants in the first data set derive from B1. In words: protein stability index of a GFP-peptide fusion (GPS, HEK-293T) (PSI 1-6); higher = more stable. The settings on record: c terminus: a fixed tail appended.
In the case of KQVLMLGQILELPWKEETFLVLQS, the protein stability index was determined as 1.56.
In the case of EQVLMLGQILELPWKEETFLVLQS, the protein stability index was determined as 2.43.
The same measure, in the same setting: for QQVLMLGQILELPWKEETFLVLQS the value was 2.4; for GQVLMLGQILELPWKEETFLVLQS, 2.51.
Take CQVLMLGQILELPWKEETFLVLQS: the protein stability index stood at 2.51.
On to IQVLMLGQILELPWKEETFLVLQS, for which the protein stability index came out at 3.1.
For LQVLMLGQILELPWKEETFLVLQS, the protein stability index was 3.15.
Same read-out and setting: for HQVLMLGQILELPWKEETFLVLQS the value was 1.25; for MQVLMLGQILELPWKEETFLVLQS, 3.16; for NQVLMLGQILELPWKEETFLVLQS, 2.31.
As for RQVLMLGQILELPWKEETFLVLQS, the protein stability index came out at 1.83.
Regarding DQVLMLGQILELPWKEETFLVLQS, the protein stability index was determined as 1.77.
On to WQVLMLGQILELPWKEETFLVLQS, for which the protein stability index was determined as 2.62.
The same measure, in the same setting: for VQVLMLGQILELPWKEETFLVLQS the value was 3.34; for TQVLMLGQILELPWKEETFLVLQS, 4.61.
Take AQHLMLGQILELPWKEETFLVLQS: the protein stability index stood at 2.45.
In the case of AQFLMLGQILELPWKEETFLVLQS, the protein stability index came to 3.46.
Same read-out and setting: for AQRLMLGQILELPWKEETFLVLQS the value was 2.92.
As for AQILMLGQILELPWKEETFLVLQS, the protein stability index was 2.75.
The same measure, in the same setting: with AQMLMLGQILELPWKEETFLVLQS the figure was 2.09; with AQYLMLGQILELPWKEETFLVLQS, 2.82; with AQLLMLGQILELPWKEETFLVLQS, 3.37.
As for AQALMLGQILELPWKEETFLVLQS, the protein stability index is 3.44.
For AQKLMLGQILELPWKEETFLVLQS, the protein stability index was determined as 1.32.
For AQNLMLGQILELPWKEETFLVLQS, the protein stability index is 1.97.
Same read-out and setting: with AQTLMLGQILELPWKEETFLVLQS the figure was 2.01; with AQSLMLGQILELPWKEETFLVLQS, 1.95.
Regarding AQPLMLGQILELPWKEETFLVLQS, the protein stability index is 1.56.
In the case of AQQLMLGQILELPWKEETFLVLQS, the protein stability index came to 1.72.
Take AQELMLGQILELPWKEETFLVLQS: the protein stability index was determined as 1.82.
On the same count and under the same terms, for AQDLMLGQILELPWKEETFLVLQS the value was 1.81; for AQGLMLGQILELPWKEETFLVLQS, 1.85; for AFVLMLGQILELPWKEETFLVLQS, 1.72.
For APVLMLGQILELPWKEETFLVLQS, the protein stability index was 1.55.
On to AGVLMLGQILELPWKEETFLVLQS, for which the protein stability index came out at 2.21.
Still for that read-out and setting: for AKVLMLGQILELPWKEETFLVLQS the value was 2.02; for ANVLMLGQILELPWKEETFLVLQS, 3.14.
For the variant AYVLMLGQILELPWKEETFLVLQS, the protein stability index was 1.82.
For the variant ADVLMLGQILELPWKEETFLVLQS, the protein stability index was 2.
As for AIVLMLGQILELPWKEETFLVLQS, the protein stability index stood at 3.13.
Same read-out and setting: with ASVLMLGQILELPWKEETFLVLQS the figure was 2.87.
AAVLMLGQILELPWKEETFLVLQS: the protein stability index was 2.05.
For ATVLMLGQILELPWKEETFLVLQS, the protein stability index is 3.45.
AEVLMLGQILELPWKEETFLVLQS: the protein stability index is 2.48.
For the variant AHVLMLGQILELPWKEETFLVLQS, the protein stability index was found to be 2.69.
With AQVAMLGQILELPWKEETFLVLQS, the protein stability index is 2.02.
For the variant AQVDMLGQILELPWKEETFLVLQS, the protein stability index turned out to be 3.76.
As to AQVCMLGQILELPWKEETFLVLQS, the protein stability index amounted to 3.01.

Variants of B2 are the subject of the next data set. Described as above. The settings on record: c terminus: a fixed tail appended.
As to KKREFRFHNIKETVVEEPVDITPY, the protein stability index is 3.02.
On to KKREFRFHSIKETVVEEPVDITPY, for which the protein stability index is 2.04.
In the case of KKREFRFHEIKETVVEEPVDITPY, the protein stability index amounted to 3.18.
Turning to KKREFRFHGIKETVVEEPVDITPY, the protein stability index amounted to 2.5.
Take KKRVFRFHPIKETVVEEPVDITPY: the protein stability index was 1.27.
For the variant KKRKFRFHPIKETVVEEPVDITPY, the protein stability index was determined as 2.79.
As for KKREFRFHPIKETVVEEPVDITPM, the protein stability index stood at 1.76.
With KKREFRFHPIKETVVEEPVTITPY, the protein stability index amounted to 1.67.
Turning to KKREFRFHPIKEFVVEEPVDITPY, the protein stability index was 1.54.
As for KKREFRFHPIKEKVVEEPVDITPY, the protein stability index was determined as 1.96.
Same read-out and setting: with KKREFRFHPIKEEVVEEPVDITPY the figure was 2.39; with KGREFRFHPIKETVVEEPVDITPY, 2.11.
On the same count and under the same terms, with KLREFRFHPIKETVVEEPVDITPY the figure was 1.83; with KKREFRFHPIKETVVEEPVDITLY, 1.84; with KKRETRFHPIKETVVEEPVDITPY, 4.52.
Take KKRELRFHPIKETVVEEPVDITPY: the protein stability index turned out to be 4.01.
For KKREHRFHPIKETVVEEPVDITPY, the protein stability index was determined as 4.36.
In the case of KKREFRFHPIKETVVEEPPDITPY, the protein stability index was 2.06.
For the variant KKREFRFHPIKETVVEEPHDITPY, the protein stability index was 1.76.
KKREFRFHPIKETVVEFPVDITPY: the protein stability index came out at 1.89.
Still for that read-out and setting: for KKREFRFHPIKETVVETPVDITPY the value was 2.13; for KKREFRFHPVKETVVEEPVDITPY, 1.98.
Regarding KKREFRFHPSKETVVEEPVDITPY, the protein stability index turned out to be 1.64.
On to KKREFRFHPFKETVVEEPVDITPY, for which the protein stability index came out at 2.69.
Still for that read-out and setting: with KKREFRFHPIKETVVEEPVDGTPY the figure was 1.49.
On to KKREFRFHPIKETVVLEPVDITPY, for which the protein stability index was found to be 1.88.
With KKREFRFHPIKETVVKEPVDITPY, the protein stability index was determined as 2.5.
On the same count and under the same terms, with KKREFRFHPIKETVVEENVDITPY the figure was 2.26.
KKREFRFHPIKETVVEEKVDITPY: the protein stability index was determined as 2.62.
The same measure, in the same setting: with KKREFFFHPIKETVVEEPVDITPY the figure was 2.57.
In the case of KKREFCFHPIKETVVEEPVDITPY, the protein stability index was 3.87.
On to SKREFRFHPIKETVVEEPVDITPY, for which the protein stability index is 1.8.
As to KKCEFRFHPIKETVVEEPVDITPY, the protein stability index was 2.35.
Take KKREFRFHPIKETVCEEPVDITPY: the protein stability index turned out to be 1.68.
KKREFRFHPIKETVPEEPVDITPY: the protein stability index was determined as 2.13.
Still for that read-out and setting: with KKREFRFHPIKETVHEEPVDITPY the figure was 1.82.
As for KKREFRFHPIKETVAEEPVDITPY, the protein stability index is 2.01.
For KKREFRFLPIKETVVEEPVDITPY, the protein stability index is 3.97.
On to KKREFRFWPIKETVVEEPVDITPY, for which the protein stability index was 3.41.
Turning to KKREFRFHPIKETVVEEPVDIAPY, the protein stability index was 1.45.
The same measure, in the same setting: with KKREFRFHPIKETVVEEPVDIVPY the figure was 1.58; with KKREFRFHPIKETPVEEPVDITPY, 1.64.
Still for that read-out and setting: with KKREFRFHPIKETFVEEPVDITPY the figure was 1.71; with KKREFRFHPIKETNVEEPVDITPY, 1.99.
With KKREFRSHPIKETVVEEPVDITPY, the protein stability index is 4.74.
As to KKREFRWHPIKETVVEEPVDITPY, the protein stability index stood at 3.25.
